Source: the nanobody polyreactivity screen of Harvey et al. (2022)

Assay: yeast display, Sf9 membrane polyspecificity reagent, FACS + sequencing; frameworks hold sequencing errors
Procedure, shortened: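 Genes from sorted yeast were amplified by colony PCR, read by MiSeq 2 × 250 sequencing and filtered on CDR length. These cells carried a synthetic nanobody library in Saccharomyces cerevisiae BJ5465 and were sorted by FACS into low and high (top ~1%) gates on anti-HA and streptavidin fluorescence. Polyreactivity is labelled according to the gate of origin.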

| Sequence | polyreactivity (PSR sort gate) |
| --- | --- |
| QVQLVESGGGLVQAGGSLRLSCAASGFTFRYYAMGWYRQAPGKERELVASISRSGSTNYADSVKGRFTISRDNAKNTVYLQMNSLKPEDTAVYYCAAQLYSRGGYWGQGTQVTVSS | high polyreactivity |
| QVQLVESGGGLVQAGGSLRLSCAASGFIFTSYAMGWYRQAPGKERELVAAISKRGGSTYYADSVKGRFTISRDNAKNTVYLQMNSLKPEDTAVYYCATRYPQPYSPGYTYDYWGLGTQVTVSS | high polyreactivity |
| QVQLVESGGGLVQAGGSLRLSCAASGFTVDYYAMGWYLQAPGKERELVAAISSSGGSTYYADSVKGRFTISRDNAKNTVYLLMNSLKPEDTAVYYCATGHSKQYDYWGQGTQVTVSS | high polyreactivity |
| QVQLVESGGGLVQAGGRLRISCAASGRTFGRYTMGWYRQAPGKERELVASISNTARTNYADSVKGRFTISRDNAKNTVYLQMNSLKPEDTAVYYCAAERAILSSDKQSLWRFDYWGQGTQVTVSS | low polyreactivity |
| PVQLVESGGGLVQAGGSLRLICAASALTFPPYSMGWYRQAPAKERELVAAISRNAGNTYYADSVKGRFTISRDTAKNTVYLQMNSLKPEDTAVYYCAAKRGTQGMYYWGQGTQVTVSS | high polyreactivity |
| QVQLEESGGCLVQAGGSLRLSCAASGFTFYQNAMGWYRQAPGKERELVAAISSGASTYYADSVKGRFTISRDNAKNTVYLQMNSLKPEDTAVYYCAADRYKPSLRWRRPKMNYWGQGTQVTVSS | high polyreactivity |
| QVQLVESGGGLVQAGGILRLSFAASGFISLDYAMGWYRQAPGKERELVAAISNGGGTNYADSVKGRFTISRDNAKNTVYLQMNSLKPEDTAVYYCNASVSYGYEYDSWGQGTQVTVSS | low polyreactivity |
| QVQLVESGGGLVQAGCSLRLSCAASGRISKRYTMGWYRQAPGKERELVAAINSSTSTSYADSVKGRFTISRDNAKNTVYLKMNSRKPEDTAVYYCNARYNYSYDYNYWGQGTQVTVSS | low polyreactivity |
| QVQLVESGGGLVQAGGSIRLSCAASGSIFLGYAMGSYRQATGKETELFAAISSGGTRTYYADSVKGRFTITRDNAKNTVYLQMNCLKPEDTAVYYCSARYIPIQYPSYRTWGGYSWGQGTQVTVSS | high polyreactivity |
| QVQLGESGAGIVQAGGSLRLSCAASGSTFQTYAMGWYRQAPGKERELVAAITWRGGSTYYAHSVKGRFTISRDNAKNTVYLQMNSLKPEDTAVYYCAAKWLGAHDHRAAYDSWGQGTQVTVSS | low polyreactivity |
| QVQLVESGGGLVQAGGSLRLSCAASGSTFLRNAMGWYRQAPGKERELVAAISLGSGSTYYADSVKGRFTISRDNAKNTVYLQMNSLKPEDTAVYYCAADVSRWLDYGYDYWGQVTQVTVSS | low polyreactivity |
| QVQLVESGGGLVQAGGSLRLSCAASGSTFVFYVMVWYRQAPGKERQLVAAITGSTTSTYYAVSVKGRFTISRDNAKNTVYLQMNSLKPEDTAVYYCAAEVLRGRGFGYWGQGTQVCVSS | high polyreactivity |
| QVQLVESGGGLVQAGGSLRLSCAASGIIFGAYAMGWYRQAPGKERELVAAITYSSGSTYYADSVKGRFTISRDNAKNTVYLQMNRLKPEDTAVYYCAKTNFSQSSRSNYDYWGQGTQVTVSS | low polyreactivity |
| QVQLVESGGGLVQAGGSLRLSCAASGFIFSSYAMGWYRPAPGKERELVAAISKSGDRTSYADSVKGRFTISRDNAKNTVYLQMNSLKPEDTAVYYCNAKYWGYSHHVIWYDYWGQGTQVTVSS | high polyreactivity |
| QVQLVESGGGLVQAGGSLRLSCAASGITLRRNAMGWYRQAPGKERELVAAISKSGGRTYYADSVKGRFTISRDHAKNTVYLQMNSLKPEDTAVYYCAADVPWAASDYWGQGTQVTVSS | high polyreactivity |
| QVQLQESGGGLVQAGGSLRLSCAASGVIFARNYMGWYRQAPGKERELVAGIGVGASTNYADSVKGRFTISRDNAKNTVYLQMNRLEPEDTAVYYCAVVDTVLGYHYYWGQGTQVTVSN | low polyreactivity |

| Sequence | polyreactivity (PSR sort gate) |
| --- | --- |
| QVQLVESGGGLVQAGGSLRLSCAASGRTLFYYTMGWYRQAPGKERELVAAISSGDSTNYADSVKGRFTISRDNAKNTVYLQMNRLKPEDTAVYYCATQYLLDYKKTYRTYYSPYDYWGQGTQVTVSS | low polyreactivity |
| QVQHVESGGGLVQAGGSLRLSCAASGRTSKKYVMGWYRQAPGKERELVATLNWSGGSTYYADSVKGRFTISRDNAKNTVYLQMNSLKPEDTAVYYCAARSEFYWGWEYITYDYWGQGTQVTVSS | low polyreactivity |
| QVQLVESGGGLVQAGGSLRLSCAASGRIFVGYAMGWYRQAPGKERELVAAISARGGSTYYADSVMGRFTISRDNAKNTVYLQMNSLKPEDTADYYCAADEASSRGYYDSDYWGQCTQVTVSS | low polyreactivity |
| QVQLVESGGGLVQAGGSLRLSCAASGRTFALYAMGWYRQAPGKERELVASISWRGGSTYYADSVKGRFTISRDNAKNTVYLQMNSLKPEDTAVYYCAADTWSYGPLNYRLEYWGQGTQVTVSS | low polyreactivity |
| QVQLVESGGGLVQAGGSLRLSCAASGFTFDYYFMGWYRQAPGKERELVAAISLRSGRTYYADSVKGRFTISRDNAKNTVYLQMKSLKPEDTAVYYCAAESRGVGAYYYWGQGTQVTVSS | high polyreactivity |
| QVQLVESGGGLVQAGGSLRLSCAASGFTFRWYAMGWYRQEPGKERELVAAITSSGGRTYYADSVKGRFTISRDNAKNTVYLQMNSMKPEDTAVYYCATDLRTRKYDYWGQGTQVTVSS | high polyreactivity |
| QVQLVESGGGLVQAGGSLRLSCAASGRIFGGNTMGWYRQAPGKEREFVAAITQSGTRTYYADSVKGRFTISRDNAKNTVYLQRNSLKPEDTAVDYCAAEGYWYPYDYWRQGTQVTVSS | high polyreactivity |
| QVQLEESGGGFVQAGGSLRLSCAASGFIFSSNAMGWYRQAPGKERELVASISSGGSTNYADSVKGRFTISRDNAKNTVYLQMNSLKPEDTAVYYCAADGISLYATAYDYWGQGTQVTVSS | low polyreactivity |
| QVQLQESGGGLVQAGGSLRLSCAASGNISVTGFMGWYRQAPGKERELVASIGIGGTTYYADSVKGRFSISRDNAKNTVYVQMNSLKPEDTAVYYCAARYLYYAYSYWGQGTQVTVRS | low polyreactivity |
| QVQLEESGGGLVQAGGSLRLSCAASGSILFFNAKGWYRQAPGKERELVADISTGGSTYYADSVKGRFTISRDNAKNTVYLQMNSLKPEDTAVYYCNADYYYFFYTLDYWGQGTQVTVSS | high polyreactivity |
| QVQLVESGGGLVQAGGSLRVSCAASGFTFSDYAMGWYRQAPGKESELVAGISSGGSTNYADSVKGLFTISRDNAKNTVYLQMNSLKPDDTAVYYCAADLYATWSYFFTWLDYWGQGTQVTVSS | high polyreactivity |
| QVQLVESGGGLVQAGGSLRLSCADSGRIFNGYGMGWYRQAPGKERELVATISSSGDSTYYADSVKGRFTISRDNAKNTVYLQMNSLKPEDTAVYYCAKRARYKFGYWGQGTQVTVSS | high polyreactivity |
| QVQLVESGGGLVQAGGSLRLSCAASGSICERYAMGWYRQAPGKERELVAAISWRGTRTFYADSVKGRFTISRDNAKNTVYLQMNSLKPEDTAVYYCAADSRPPKYDYWGQGTQVTVSS | high polyreactivity |
| QVQLVESGGGLVQAGGSLRLSCAASGSTFEYNDMGWYRQAPGKERELVAAISSGGDTNYADSVKGRFTISRDNAKITVYLQMNSLKPEDTAVYYCAADDWAPYRWYYGYAGYYYWGQGTLVTVSS | low polyreactivity |
| QVQLVESGGCLVQAGGSLRLSCAASGRTFKQYAIGWSRQAPGKERELVAAITSGGSTYYADSVKGRFTISRDNAKNTVSLHMNSLKPEDNAVYYCNKESYFDTYRRYDSWGQCTQVTVSS | low polyreactivity |
| QVQLVESVGGLVQAGGSLRLSCAASGSIFVKYAMGWYRQAPGKECEMVPAISGSGGSTYYADSVKGRFTISRDNAKNTVYLQMNSLKQEDTAVYYCAADDYFYAGTLPGWWYDYWGQGTQVTVSS | low polyreactivity |
